From PMC8119428, “LSD1-mediated demethylation of OCT4 safeguards pluripotent stem cells by maintaining the transcription of PORE-motif-containing genes” come the findings set out here.

The series deals with OCT4 K222F (Homo sapiens, UniProt Q01860 1-360, K222F). Nature of the series: EMSA; homodimer; significantly increased vs WT and other variants; LightShift EMSA: 20 ul, 1.5 ug His-OCT4, 0.5 ug His-SOX2 where used, 50 nM biotin-dsDNA, 1 ul poly(dI-dC), 1x loading buffer (salt and pH not stated), 30 min, 25 C. The settings on record: protein: recombinant; tags: His (pET28a); label: 5'-biotin on sense strand; blunt. For orientation: Mobility shift assays separate free from complexed probe on a gel.
Chain of OCT4 K222F (Q01860 whole entry K222F): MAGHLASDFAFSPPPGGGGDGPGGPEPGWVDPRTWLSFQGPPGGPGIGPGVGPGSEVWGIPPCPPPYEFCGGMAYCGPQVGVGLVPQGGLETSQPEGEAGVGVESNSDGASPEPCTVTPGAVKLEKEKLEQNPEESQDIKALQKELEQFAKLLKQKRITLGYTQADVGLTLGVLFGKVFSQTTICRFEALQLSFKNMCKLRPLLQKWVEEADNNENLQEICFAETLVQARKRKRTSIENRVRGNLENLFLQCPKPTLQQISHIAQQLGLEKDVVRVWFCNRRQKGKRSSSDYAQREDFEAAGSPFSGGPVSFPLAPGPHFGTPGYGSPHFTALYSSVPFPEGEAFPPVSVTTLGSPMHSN

B1: PORE probe (dsDNA)
DNA 1: TATACTAAGCAATTCTTCATTGATTTGAAATGCAAATTTGACTGGGCACCCTGTATCTT
DNA 2: AAGATACAGGGTGCCCAGTCAAATTTGCATTTCAAATCAATGAAGAATTGCTTAGTATA
For the molecule B1, the binding result is “binds”.
